{"source": "patent US20230159624A1", "key": {"[1]": {"biological_target": "MT1-MMP (R&D, 918-MP-010) (UniProt P50281)", "experiment": "enzyme inhibition kinetics with fluorescent substrate Mca-K-P-L-G-L-Dpa-A-R-NH2, LS-55 spectrofluorimeter"}, "[2]": {"biological_target": "MT1-MMP (R&D, 918-MP-010) (UniProt P50281)", "experiment": "enzyme inhibition kinetics with fluorescent substrate, LS-55 spectrofluorimeter"}}}
{"substance": "Wild Type TIMP-1 (inhibitory domain) (from UniProt P01033 24-149)", "values": [{"measurement": "Ki^app", "setting": "[1]", "value": 178, "unit": "nM"}, {"measurement": "Ki^app", "setting": "[2]", "value": "> 150", "unit": "nM"}]}
